For one data set, the target named is RAGE mutant 0 (UniProt Q15109 23-237, K110A;R178A;R179A). The data set can be described thus: fluorescence polarization.
In data set [1] the target is T1, RAGE V-C1 (crystallography) (human, UniProt Q15109 23-237). The data set can be described thus: X-ray crystallography.
The data set “crystal structure” concerns the molecule itself. The data set can be described thus: crystal structure.
Data set [2] concerns the target T2, RAGE extracellular domain V-C1-C2 (His) (human, UniProt Q15109 23-342). The data set can be described thus: AlphaScreen. For orientation: In Alpha technology, singlet oxygen from a donor bead excites a nearby acceptor bead.
Another data set deals with RAGE V domain (His) (human, UniProt Q15109 23-121). The data set can be described thus: AlphaScreen.
The target in data set [3] is T1, RAGE V-C1 (crystallography). The data set can be described thus: X-ray crystallography. This is another data set of the same source.
For data set [4], the target named is T2, RAGE extracellular domain V-C1-C2 (His). The data set can be described thus: AlphaScreen. The source holds these as a separate data set.

Read-outs that look alike come from different tables or passages of the source.

B1: ODN 787/788 20mer (dsDNA)
DNA 1: CCATCAAAGAGAGAAAGAGC
DNA 2: GCTCTTTCTCTCTTTGATGG
With B1, in the data set with RAGE mutant 0, the binding result is “binds”.

B2: ODN 752/753 vaccinia repeat 22mer (dsDNA)
DNA 1: CCATGACTGTAGGAAACTCTAG
DNA 2: GCTAGAGTTTCCTACAGTCATG
For the molecule B2, the binding result in data set [1] was “binds”.

B3: Human RAGE V-C1 domain (residues 23-237) (domain or fragment)
chain: AQNITARIGEPLVLKCKGAPKKPPQRLEWKLNTGRTEAWKVLSPQGGGPWDSVARVLPNGSLFLPAVGIQDEGIFRCQAMNRNGKETKSNYRVRVYQIPGKPEIVDSASELTAGVPNKVGTCVSEGSYPAGTLSWHLDGKPLVPNEKGVSVKEQTRRHPETGLFTLQSELMVTPARGGDPRPTFSCSFSPGLPRHRALRTAPIQPRVWEPVPLEE
Consider B3, for which, in “crystal structure”, the binding result is on record as “binds”.
With TCGTCGTTTTGTCGTTTTGTCGTT (ssDNA, backbone of assayed form not in material; probably phosphorothioate) [ODN 2006 (CpG-B)], the binding result (in data set [2]; with RAGE V domain (His)) was “binds” each time.

B4: ODN 981/982 CpG 22mer (dsDNA)
DNA 1: CTGCAACGATGCTACGAACGTG
DNA 2: CACGTTCGTAGCATCGTTGCAG
With B4, the binding result in data set [3] is “binds”.
Take GGGGACGACGTCGTGGGGGGG (ssDNA, phosphorothioate at positions marked * (G*G*GGACGACGTCGTGG*G*G*G*G*G)) [ODN 2336 (CpG-A)]: the binding result in data set [4] is “binds”.

Source of the values: paper PMC3804942 (The Journal of Experimental Medicine, 2013).
